# Experimental data from patent US12310324B2, “Compositions and methods for minimizing nornicotine synthesis in tobacco” (North Carolina State University, priority 2010, dated 2025).
# Tests used:
# [1] = test system: CYP82E10 nicotine demethylase; assay: Nicotine demethylase assay, yeast microsomal membranes with [14C]-nicotine, CYP82E10 and variants; type: biochemical, tobacco; parameters: Activity of Mutant Enzyme: concentration or dose not given beside the values; settings: for Activity of Mutant Enzyme: relative to the wild type enzyme when expressed in yeast; for nicotine demethylase (enzyme) activity, result in words: [14C]-nicotine
# Description: To determine whether CYP82E10 functions as a nicotine demethylase gene, its cDNA was cloned into the yeast expression vector pYeDP60 and transformed into yeast strain W(R). Strain W(R) is a yeast cell line that was engineered to overexpress the yeast NADPH-dependent P450 reductase, an enzyme that serves as the direct electron donor to P450s; this system greatly enhances the detection of foreign P450 enzyme activities that are expressed in yeast (Pompon et al., 1995). Nicotine demethylase assays were conducted by incubating yeast microsomal membrane preparations with [^14C]-nicotine, and resolving the products by thin layer chromatography as described in Siminszky et al. (2005).
# The nucleotide and amino acid residues mutated in these plants are also highlighted in FIG. 1. Although no truncation mutations were observed among these individuals, in several cases, mutations were identified that altered an amino acid residue within a highly conserved region of the enzyme. To determine the effects of a particular mutation on CYP82E10 enzyme activity, site-directed mutagenesis was used to introduce the specific mutations corresponding to seven of the nine mutations shown in Table 2 into the CYP82E10 cDNA within the pYeDP60 yeast expression vector. Microsomal preparations from yeast strains expressing each of the seven CYP82E10 variants were assayed in vitro for nicotine demethylase activity using both non-saturating (2.45 μM) and saturating (50 μM) concentrations of [^14C]-nicotine.
# [2] = test system: CYP82E4 nicotine demethylase
Molecule,Activity of Mutant Enzyme [1],"nicotine demethylase (enzyme) activity, result in words ([1]; yeast microsomes)",loss of nicotine demethylase activity from mutation (knocked out) [1] [%],nicotine demethylase activity relative to the wild-type CYP82E10 polypeptide [1],"reduction in activity compared to the wild type CYP82E10 enzyme ([1]; yeast microsomes, 2.45 μM and 50 μM [14C]-nicotine) [%]",inhibition of nicotine demethylase activity (knocked out) [2] [%]
"Plant 693: CYP82E10 mutant enzyme R417H (mutation G1250A) from plant 693 (protein, listed as Nicotiana tabacum, CYP82E10 R417H Variant) MVSPVEAIVGLVTLTLLFYFIRTKKSQKPSKPLPPKIPGGWPVIGHLFYFDDDSDDRPLARKLGDLADKYGPVFTFRLGLPLVLVVSSYEAIKDCFSTNDAIFSNRPAFLYGEYLGYNNAMLFLTKYGPYWRKNRKLVIQEVLCASRLEKLKHVRFGEIQTSIKNLYTRIDGNSSTINLTDWLEELNFGLIVKMIAGKNYESGKGDEQVERFRKAFKDFIILSMEFVLWDAFPIPLFKWVDFQGHVKAMKRTFKDIDSVFQNWLEEHVKKKEKMEVNAEGNEQDFIDVVLSKMSNEYLDEGYSRDTVIKATVFSLVLDAADTVALHMNWGMALLINNQHALKKAQEEIDKKVGKDRWVEESDIKDLVYLQTIVKEVLRLYPPGPLLVPHENVEDCVVSGYHIPKGTRLFANVMKLQHDPKLWSNPDKFDPERFFAADIDFRGQHYEFIPFGSGRRSCPGMTYAMQVEHLTIAHLIQGFNYKTPNDEPLDMKEGAGLTIRKVNPIEVVITPRLTPELY",100%,did not alter enzyme activity,,,,
"Plant 817: CYP82E10 mutant enzyme A410T (mutation G1228A) from plant 817 (protein, listed as Nicotiana tabacum, CYP82E10 A410T) MVSPVEAIVGLVTLTLLFYFIRTKKSQKPSKPLPPKIPGGWPVIGHLFYFDDDSDDRPLARKLGDLADKYGPVFTFRLGLPLVLVVSSYEAIKDCFSTNDAIFSNRPAFLYGEYLGYNNAMLFLTKYGPYWRKNRKLVIQEVLCASRLEKLKHVRFGEIQTSIKNLYTRIDGNSSTINLTDWLEELNFGLIVKMIAGKNYESGKGDEQVERFRKAFKDFIILSMEFVLWDAFPIPLFKWVDFQGHVKAMKRTFKDIDSVFQNWLEEHVKKKEKMEVNAEGNEQDFIDVVLSKMSNEYLDEGYSRDTVIKATVFSLVLDAADTVALHMNWGMALLINNQHALKKAQEEIDKKVGKDRWVEESDIKDLVYLQTIVKEVLRLYPPGPLLVPHENVEDCVVSGYHIPKGTRLFTNVMKLQRDPKLWSNPDKFDPERFFAADIDFRGQHYEFIPFGSGRRSCPGMTYAMQVEHLTIAHLIQGFNYKTPNDEPLDMKEGAGLTIRKVNPIEVVITPRLTPELY",100%,did not alter enzyme activity,,,,
"Plant 1035: CYP82E10 mutant enzyme A344T (mutation G1030A) from plant 1035 (protein, listed as Nicotiana tabacum, CYP82E10 A344T Variant) MVSPVEAIVGLVTLTLLFYFIRTKKSQKPSKPLPPKIPGGWPVIGHLFYFDDDSDDRPLARKLGDLADKYGPVFTFRLGLPLVLVVSSYEAIKDCFSTNDAIFSNRPAFLYGEYLGYNNAMLFLTKYGPYWRKNRKLVIQEVLCASRLEKLKHVRFGEIQTSIKNLYTRIDGNSSTINLTDWLEELNFGLIVKMIAGKNYESGKGDEQVERFRKAFKDFIILSMEFVLWDAFPIPLFKWVDFQGHVKAMKRTFKDIDSVFQNWLEEHVKKKEKMEVNAEGNEQDFIDVVLSKMSNEYLDEGYSRDTVIKATVFSLVLDAADTVALHMNWGMALLINNQHALKKTQEEIDKKVGKDRWVEESDIKDLVYLQTIVKEVLRLYPPGPLLVPHENVEDCVVSGYHIPKGTRLFANVMKLQRDPKLWSNPDKFDPERFFAADIDFRGQHYEFIPFGSGRRSCPGMTYAMQVEHLTIAHLIQGFNYKTPNDEPLDMKEGAGLTIRKVNPIEVVITPRLTPELY",100%,did not alter enzyme activity,,,,
"Plant 1512: CYP82E10 mutant enzyme P107S (mutation C319T) from EMS treated DH98-325-6 plant 1512 (protein, listed as Nicotiana tabacum, CYP82E10 P107S Variant) MVSPVEAIVGLVTLTLLFYFIRTKKSQKPSKPLPPKIPGGWPVIGHLFYFDDDSDDRPLARKLGDLADKYGPVFTFRLGLPLVLVVSSYEAIKDCFSTNDAIFSNRSAFLYGEYLGYNNAMLFLTKYGPYWRKNRKLVIQEVLCASRLEKLKHVRFGEIQTSIKNLYTRIDGNSSTINLTDWLEELNFGLIVKMIAGKNYESGKGDEQVERFRKAFKDFIILSMEFVLWDAFPIPLFKWVDFQGHVKAMKRTFKDIDSVFQNWLEEHVKKKEKMEVNAEGNEQDFIDVVLSKMSNEYLDEGYSRDTVIKATVFSLVLDAADTVALHMNWGMALLINNQHALKKAQEEIDKKVGKDRWVEESDIKDLVYLQTIVKEVLRLYPPGPLLVPHENVEDCVVSGYHIPKGTRLFANVMKLQRDPKLWSNPDKFDPERFFAADIDFRGQHYEFIPFGSGRRSCPGMTYAMQVEHLTIAHLIQGFNYKTPNDEPLDMKEGAGLTIRKVNPIEVVITPRLTPELY",Not detected,complete enzyme inactivation,100,,,
"Plant 2476: CYP82E10 mutant enzyme G79S (mutation G235A) from EMS treated DH98-325-6 plant 2476 (protein, listed as Nicotiana tabacum, CYP82E10 G79S Variant) MVSPVEAIVGLVTLTLLFYFIRTKKSQKPSKPLPPKIPGGWPVIGHLFYFDDDSDDRPLARKLGDLADKYGPVFTFRLSLPLVLVVSSYEAIKDCFSTNDAIFSNRPAFLYGEYLGYNNAMLFLTKYGPYWRKNRKLVIQEVLCASRLEKLKHVRFGEIQTSIKNLYTRIDGNSSTINLTDWLEELNFGLIVKMIAGKNYESGKGDEQVERFRKAFKDFIILSMEFVLWDAFPIPLFKWVDFQGHVKAMKRTFKDIDSVFQNWLEEHVKKKEKMEVNAEGNEQDFIDVVLSKMSNEYLDEGYSRDTVIKATVFSLVLDAADTVALHMNWGMALLINNQHALKKAQEEIDKKVGKDRWVEESDIKDLVYLQTIVKEVLRLYPPGPLLVPHENVEDCVVSGYHIPKGTRLFANVMKLQRDPKLWSNPDKFDPERFFAADIDFRGQHYEFIPFGSGRRSCPGMTYAMQVEHLTIAHLIQGFNYKTPNDEPLDMKEGAGLTIRKVNPIEVVITPRLTPELY",Not detected,complete enzyme inactivation,100,,,
"Plant 1442: CYP82E10 mutant enzyme P419S (mutation C1255T) from plant 1442 (protein, listed as Nicotiana tabacum, CYP82E10 P419S Variant) MVSPVEAIVGLVTLTLLFYFIRTKKSQKPSKPLPPKIPGGWPVIGHLFYFDDDSDDRPLARKLGDLADKYGPVFTFRLGLPLVLVVSSYEAIKDCFSTNDAIFSNRPAFLYGEYLGYNNAMLFLTKYGPYWRKNRKLVIQEVLCASRLEKLKHVRFGEIQTSIKNLYTRIDGNSSTINLTDWLEELNFGLIVKMIAGKNYESGKGDEQVERFRKAFKDFIILSMEFVLWDAFPIPLFKWVDFQGHVKAMKRTFKDIDSVFQNWLEEHVKKKEKMEVNAEGNEQDFIDVVLSKMSNEYLDEGYSRDTVIKATVFSLVLDAADTVALHMNWGMALLINNQHALKKAQEEIDKKVGKDRWVEESDIKDLVYLQTIVKEVLRLYPPGPLLVPHENVEDCVVSGYHIPKGTRLFANVMKLQRDSKLWSNPDKFDPERFFAADIDFRGQHYEFIPFGSGRRSCPGMTYAMQVEHLTIAHLIQGFNYKTPNDEPLDMKEGAGLTIRKVNPIEVVITPRLTPELY",25%,,,about 25%,75,
"CYP82E4 W329Stop: CYP82E4 variant with stop codon for tryptophan at position 329 (protein, listed as Nicotiana tabacum, CYP82E4 W329Stop Variant) MLSPIEAIVGLVTFTFLFFFLWTKKSQKPSKPLPPKIPGGWPVIGHLFHFNDDGDDRPLARKLGDLADKYGPVFTFRLGLPLVLVVSSYEAVKDCFSTNDAIFSNRPAFLYGDYLGYNNAMLFLANYGPYWRKNRKLVIQEVLSASRLEKFKHVRFARIQASIKNLYTRIDGNSSTINLTDWLEELNFGLIVKMIAGKNYESGKGDEQVERFKKAFKDFMILSMEFVLWDAFPIPLFKWVDFQGHVKAMKRTFKDIDSVFQNWLEEHINKREKMEVNAEGNEQDFIDVVLSKMSNEYLGEGYSRDTVIKATVFSLVLDAADTVALHIN",,,,,,100
"CYP82E4 K364N: CYP82E4 variant with asparagine for lysine at position 364 (protein, listed as Nicotiana tabacum, CYP82E4 K364N Variant) MLSPIEAIVGLVTFTFLFFFLWTKKSQKPSKPLPPKIPGGWPVIGHLFHFNDDGDDRPLARKLGDLADKYGPVFTFRLGLPLVLVVSSYEAVKDCFSTNDAIFSNRPAFLYGDYLGYNNAMLFLANYGPYWRKNRKLVIQEVLSASRLEKFKHVRFARIQASIKNLYTRIDGNSSTINLTDWLEELNFGLIVKMIAGKNYESGKGDEQVERFKKAFKDFMILSMEFVLWDAFPIPLFKWVDFQGHVKAMKRTFKDIDSVFQNWLEEHINKREKMEVNAEGNEQDFIDVVLSKMSNEYLGEGYSRDTVIKATVFSLVLDAADTVALHINWGMALLINNQKALTKAQEEIDTKVGKDRWVEESDINDLVYLQAIVKEVLRLYPPGPLLVPHENVEDCVVSGYHIPKGTRLFANVMKLQRDPKLWSDPDTFDPERFIATDIDFRGQYYKYIPFGSGRRSCPGMTYALQVEHLTMAHLIQGFNYRTPNDEPLDMKEGAGITIRKVNPVELIIAPRLAPELY",,,,,,100
